Assay results from article PMC4463457.

B1: VSV-SNAP-hD3 (VSV- and SNAP-tagged human dopamine D3 receptor) [modified: SNAP tag covalently labelled with SNAP-Lumi4-Tb or SNAP-Red; SNAP tag covalently labelled with SNAP-Lumi4-Tb or SNAP-Red] [human] / … (parent)
chain: MASLSQLSGHLNYTCGAENSTGASQARPHAYYALSYCALILAIVFGNGLVCMAVLKERALQTTTNYLVVSLAVADLLVATLVMPWVVYLEVTGGVWNFSRICCDVFVTLDVMMCTASILNLCAISIDRYTAVVMPVHYQHGTGQSSCRRVALMITAVWVLAFAVSCPLLFGFNTTGDPTVCSISNPDFVIYSSVVSFYLPFGVTVLVYARIYVVLKQRRRKRILTRQNSQCNSVRPGFPQQTLSPDPAHLELKRYYSICQDTALGGPGFQERGGELKREEKTRNSLSPTIAPKLSLEVRKLSNGRLSTSLKLGPLQPRGVPLREKKATQMVAIVLGAFIVCWLPFFLTHVLNTHCQTCHVSPELYSATTWLGYVNSALNPVIYTTFNIEFRKAFLKILSC

Variants of: B1
Test: htrFRET
Settings: with itself; HEK293T cells transfected with increasing amounts of construct; read off a plot

Q: With MASLSQLSGHLNYTCGAENSTGASQARPHAYYALSYCALILAIVFGNGLVCMAVLKERALQTTTNYLVVSLAVADLLVATLVMPWVVYLEVTGGVWNFSRICCDVFVTLDVMMCTASILNLCAISIDRYTAVVMPVHYQHGTGQSSCRRVALMITAVWVLAFAVSCPLLFGFNTTGDPTVCSISNPAFVAYSSAVSFYAPFGVTVLVYARIYVVLKQRRRKRILTRQNSQCNSVRPGFPQQTLSPDPAHLELKRYYSICQDTALGGPGFQERGGELKREEKTRNSLSPTIAPKLSLEVRKLSNGRLSTSLKLGPLQPRGVPLREKKATQMVAIVLGAFIVCWLPFFLTHVLNTHCQTCHVSPELYSATTWLGYVNSALNPVIYTTFNIEFRKAFLKILSC [chain 1 D187A I190A V194A L199A] as the variant, how does the ratio to parent read?
A: 0.89

Q: With MASLSQLSGHLNYTCGAENSTGASQARPHAYYALSYCALILAIVFGNGLVCMAVLKERALQTTTNYLVVSLAVADLLVATLVMPWVVYLEVTGGVWNFSRICCDVFVTLDVMMCTASILNLCAISIDRYTAVVMPVHYQHGTGQSSCRRVALMITAVWVLAFAVSCPLLFGFNTTGDPTVCSISNPDFVIYSSVVSFYLPFGVTVLVYARIYVVLKQRRRKRILTRQNSQCNSVRPGFPQQTLSPDPAHLELKRYYSICQDTALGGPGFQERGGELKREEKTRNSLSPTIAPKLSLEVRKLSNGRLSTSLKLGPLQPRGVPLREKKATQMVAIVLGAFIVCWLPFFLTHVLNTHCQTCHVSPELYSATTWLGYVNSALNPVIYTTFNIEFRKAAAAILSC [chain 1 F394A L395A K396A] as the variant, how does the ratio to parent read?
A: 0.5

Q: MASLSQLSGHLNYTCGAENSTGASQARPHAYYALSYCALILAIVFGNGLVCMAVLKERALQTTTNYLVVSLAVADLLVATLVMPWVVYLEVTGGVWNFSRICCDVFVTLDVMMCTASILNLCAISIDRYTAVVMPVHYQHGTGQSSCRRVALMITAVWVLAFAVSCPLLFGFNTTGDPTVCSISNPDFVIYSSVVSFYLPFGVTVLVYAAIAAVLAQRRRKRILTRQNSQCNSVRPGFPQQTLSPDPAHLELKRYYSICQDTALGGPGFQERGGELKREEKTRNSLSPTIAPKLSLEVRKLSNGRLSTSLKLGPLQPRGVPLREKKATQMVAIVLGAFIVCWLPFFLTHVLNTHCQTCHVSPELYSATTWLGYVNSALNPVIYTTFNIEFRKAFLKILSC [chain 1 R210A Y212A V213A K216A] was tested. Which ratio to parent did it give?
A: 0.76

Q: How did the ratio to parent turn out when MASLSQLSGHLNYTCGAENSTGASQARPHAAAAAAYCALILAIVFGNGLVCMAVLKERALQTTTNYLVVSLAVADLLVATLVMPWVVYLEVTGGVWNFSRICCDVFVTLDVMMCTASILNLCAISIDRYTAVVMPVHYQHGTGQSSCRRVALMITAVWVLAFAVSCPLLFGFNTTGDPTVCSISNPDFVIYSSVVSFYLPFGVTVLVYARIYVVLKQRRRKRILTRQNSQCNSVRPGFPQQTLSPDPAHLELKRYYSICQDTALGGPGFQERGGELKREEKTRNSLSPTIAPKLSLEVRKLSNGRLSTSLKLGPLQPRGVPLREKKATQMVAIVLGAFIVCWLPFFLTHVLNTHCQTCHVSPELYSATTWLGYVNSALNPVIYTTFNIEFRKAFLKILSC [chain 1 Y31A Y32A L34A S35A] was run?
A: 1
